± gives the uncertainty stated by the source.
assay: amyloid nucleation score (Sup35N fusion, yeast selection) (log enrichment); library NNK3; higher = more nucleation; inactive = no reads after selection
Method in brief: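 The nucleation score is the log enrichment of output over input reads, calculated with DiMSum and centred on the mode score of non-aggregating sequences. Sequences with under 100 input reads were excluded. Reads came from Illumina sequencing of plasmid inserts from psi-negative yeast expressing Sup35N fused to peptides of 20 random codons, induced 24 hours with 100 μM copper sulfate and grown 7 days at 30°C without adenine and uracil.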

Substance	amyloid nucleation score
NVCGNDGNR	inactive
VICFFTTNAEHLQFLV	inactive
YWGIDHRIAGYIC	inactive
QYGIKGRRVKCWLCWHGDVE	inactive
CKRCIPMRYYQL	inactive
GCSTINALCGHLDVVVCIAG	1.64 ± 0.094
LACLILS	inactive
YSACSSGVPRCLDMSRATVE	-0.055 ± 1.1
ISTVNNIRIRFASKLGFFE	1.25 ± 0.071
MMRNTDK	inactive
PRSCN	inactive
RAPRVVIGCSMYMGMFSELE	0.772 ± 0.14
EWTVNMNSYLLVSVAYGCGS	inactive
YIYSVEEYSRTSLIDDSVGW	inactive
MKEDSSYHWRLPHVTSTFVG	inactive
SMWYASFTYESYLCLFKESR	inactive
PIGGLEFNMGFRYRVIRVTM	-0.436 ± 1.7
ICRRPYFSHLRSHRGFQNTD	inactive
LGFLNWSRQGGV	0.947 ± 0.25
MYRCKKGGLCKLSGCTSKAL	inactive
FYYRSFCRNGRRH	inactive
SMNNWGFDNICSQVCPLAAM	inactive
RTFPLTLRSSHSPFKPLMFL	inactive
LHHMHYSLKGS	inactive
VSYRCSTICTNLVITVCLCD	0.25 ± 0.34
WSTLFVIILPTKTLGYYCFW	inactive

Substance	amyloid nucleation score
SREVSLLKWMVIILCLW	inactive
STNMFVCDGRTPTNYWLGIR	1.42 ± 0.14
IVSCTCDRMADLGST	inactive
ILSRRLRLQLLFDFYNCLCG	inactive
LWFMDFMQSSNSEYQPIVGL	inactive
LSVDRL	-0.632 ± 0.9
RLYLNSFSHQNSCPRDLDGL	0.969 ± 0.1
SLGTLISLPYTSA	inactive
KHVGIVMH	inactive
MDNLCGVVFCGSWSVVYSAR	3.35 ± 0.06
CWPESISVVYLQYCAGSMSL	inactive
LRMHWDTYERSVDTIASVVH	inactive
TVPFTPIICESVFSD	inactive
FLTDRPYRGCG	inactive
SKCIKLFNFNVSCFQTSSLL	2.29 ± 0.092
ATQLCCIVCRGLGPGMGEES	inactive
LPIQVSFVMVRWGSMFMFRN	inactive
QFIDRNVWLISSGFRTRFDI	inactive
LWHGIICFCFLAYSWGKSAV	inactive
NLSRRIWTHYHTQVNLIGID	inactive
LTDRDDDSTHVRSPYSRLLW	inactive
FELFKKGRSI	0.898 ± 0.23
FWSDFYPHVLIRWFRSMVRS	inactive
SCRWMTMCAINSP	0.726 ± 0.2
HIVNLFRLYYIAMWGSVCHV	inactive
FWLRNHFHSIAGICMFVGYW	inactive

Substance	amyloid nucleation score
AAFAREDRCSLLVWYSTCWD	inactive
TRNMIMRRKSTLRHLVTEAD	inactive
MSFRIVFLPC	inactive
PAELGVVSMCGFLGSAAYQE	inactive
IIRAFDTYVCCKFGNCSVHM	2.59 ± 0.052
TWRKGVSVLVLSGFVVTNQR	inactive
ARDNDLLNCMMLGLFSRLAF	inactive
NRLWSYMGTVLFNPFWLVWR	inactive
FSVDYQHRCQGQYPYIWYSN	inactive
DDDHKIKLLLSGGL	inactive
FLILVGLGRIDLMGTIIKKR	inactive
HDVFSNYLITVQTFLWLSGV	inactive
YILIL	inactive
LSMPMAAGCFKHMPCAA	-0.643 ± 1.7
KYIQIDKVFH	inactive
TPKTLDWAYGYNIVSGKAIN	inactive
MKLVDLGVEIRLRRLAVSSV	inactive
IFSLLPVDILVTLY	inactive
TTCYTLFSTDENDNSKWICG	inactive
IYTVWMAKGVTPVQKGPSRY	inactive
LNVRAVFIVTRISVSYSRAR	0.081 ± 0.52
GRLSVFLGYIHGRCYGALGR	-0.635 ± 1.9
KSNFGLVSSPMVFSYCSYTN	0.364 ± 0.35
SPQVLDRWDQFKWKFVFRGS	0.584 ± 0.13
VYVWSG	inactive
STSICIGLLYAFVFEARVLC	inactive

Substance	amyloid nucleation score
FFVYVEHRCSYNGRTSDIFY	-0.185 ± 0.51
QLLQVWVNMFKTTAISWIVF	inactive
LMLGYLKYLYGAANRICYRS	inactive
TGYLQLYRTADDRGLEYCIM	inactive
VWSTGRLLRGKSWELISNDT	inactive
VHELIDHKMKMIGLVFGLSI	inactive
CDLMAKGSCIEQPQPSVAGK	inactive
DYDGWESCFHFS	inactive
RRAGNKWYVR	inactive
RRRLIR	inactive
FVSRGKLLPNAPGFMWFLLR	-0.533 ± 1.9
KCMGVSWLSNIVRSIRVIIS	inactive
CEQQSRYHMKFMPASLLSFK	inactive
CVVELHHVCRVPMCPFCWTV	inactive
SYSRLWTQMNCTKVVNSYC	inactive
YTQFYSMILDRRFCFNSVEL	inactive
FAMMDELRRMWARSACSTRV	inactive
WVHSVKENVSCGSRF	inactive
YVYWREFGACMGSQQWVVRV	inactive
DWLDLSGVSCH	-0.11 ± 0.62
LGKPASSTQSMWNSFVYWLP	inactive
AVTDLDIFICSG	inactive
ELLHKAF	inactive
LHGHTWSWSLDWLSYMTAVQ	inactive
LYFSNRTIKEYIVN	inactive
NSCTDSGPMGTSFSCTLGF	inactive

Substance	amyloid nucleation score
RWFLSWWIYFEVKPNDNSFF	inactive
MSGLENVACDYKRELAMKRS	inactive
FHVSCSSFSKWNHENWHNLK	0.006 ± 0.56
CVMGVG	0.312 ± 0.31
SMRLVAWYW	inactive
SFEPRSLMYNTNRGI	inactive
CYSNTLELNDARNCFFNWVR	inactive
YAALWITYCLSSTTSRDDLD	inactive
GVLYDGVGDNHCCGSRKLVL	inactive
DNLPTRRYLNKNDWRGASYL	inactive
FNTPDRAPLLATCAVHANLH	inactive
KLTNLI	inactive
RMFVSIRLLGTCCSDWSYYE	1.78 ± 0.085
TIVFCIVLGWLEFHRHFVSD	inactive
YQCFVKELYKECISHWARRK	inactive
SRFKFTAESLISVTVERLFL	0.626 ± 0.21
NLSGIHIFLVSRLEWVLDNL	inactive
LCHYYLRSKLMAFDMLAFPS	inactive
QSLGVTRFWGLSLLLQNFLP	inactive
LKGKP	inactive
SERWGIESHNRNSNMRKTGW	inactive
VPPVVSAP	1.05 ± 0.12
YWFIAQAYKGRCVGSTVDKR	inactive
RLHLRKYFFETAHWICMNDG	inactive
ILVKIVSWVHLKRTVGTDQD	inactive
NWGVVYYISSCNGNSSHLSS	1.83 ± 0.097

Substance	amyloid nucleation score
SWFWVHHEFVFKALGTLIRT	inactive
ALTAYLVNVWSKYTGMLFSC	inactive
KNYNNYMVSSNNLLVDIWLV	1.47 ± 0.12
YYWLLIGLLFRVLLMLVQGK	inactive
QMRVQMSCCFLGTCFSGRHW	3.29 ± 0.056
SIGNCIFYTMAVFQWSTYTL	inactive
NPIIKKSKLLKGHLSTCPMV	inactive
CKRHLNYSVSRAKAEKINYL	inactive
SGLLSAVLDAAS	inactive
TNRPMNGSYNNMWSRINLMV	inactive
ENYLSPTSKMTMIWGCILWW	inactive
NCTNFALVSNLASTRTIADW	inactive
MKLHTPIEMLEGTHIGHVCG	inactive
NWRQNEPYSPGSKSLGWHSF	inactive
TSLGNGVSHGTLGFILTVNT	inactive
CLGMSFLRRMGTMSAYPTIK	inactive
YAVSLMIFGFWGSSMFSHPS	0.779 ± 0.11
YQSTVFGCYTYSRLKCLRSA	inactive
SGMLIVLRSWLDRDSICEGR	inactive
FDACLTERVVGISKDTDTSG	inactive
APHLFLARYLYVCLYCENEW	1.25 ± 0.11
EYNPQLSRNSNDLYADELKE	inactive
GGSARCNRLCWYAVLDVLLL	inactive
ELLCLIYMDLHVCWQGLTMQ	inactive
FVRVALMYFVLKLTSRYKRN	inactive

From the supplement of paper PMC12042874
